Reference: PMC10397247

T1: 4H568-bH
T1 chain: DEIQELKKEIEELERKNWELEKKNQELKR

T2: 4H3427-bH
T2 chain: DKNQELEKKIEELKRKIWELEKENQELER

T3: 4H72-bH
T3 chain: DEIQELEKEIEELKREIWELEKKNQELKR

T4: 4H3185-bH
T4 chain: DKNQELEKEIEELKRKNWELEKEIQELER

T5: 4H3354-bH
T5 chain: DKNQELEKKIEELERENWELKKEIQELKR

T6: 4H967-bH
T6 chain: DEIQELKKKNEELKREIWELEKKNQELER

T7: 4H454-bH
T7 chain: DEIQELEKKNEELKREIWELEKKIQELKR

T8: 4H754-bH
T8 chain: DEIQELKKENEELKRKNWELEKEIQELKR

T9: 4H687-bH
T9 chain: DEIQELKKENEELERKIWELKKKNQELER

T10: 4H797-bH
T10 chain: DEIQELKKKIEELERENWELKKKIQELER

T11: 4H607-bH
T11 chain: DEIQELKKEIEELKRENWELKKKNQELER

T12: 4H3782-bH
T12 chain: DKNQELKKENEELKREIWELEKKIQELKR

T13: 4H338-bH
T13 chain: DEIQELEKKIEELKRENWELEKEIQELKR

T14: 4H953-bH
T14 chain: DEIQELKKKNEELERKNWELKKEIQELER

T15: 4H717-bH
T15 chain: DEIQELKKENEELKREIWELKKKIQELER

T16: 4H908-bH
T16 chain: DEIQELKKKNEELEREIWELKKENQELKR

T17: 4H4001-bN
T17 chain: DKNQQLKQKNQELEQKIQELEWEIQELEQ

T18: 4H3855-bH
T18 chain: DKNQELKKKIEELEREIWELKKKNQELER

T19: 4H918-bH
T19 chain: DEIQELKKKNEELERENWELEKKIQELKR

T20: 4H883-bH
T20 chain: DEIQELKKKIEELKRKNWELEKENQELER

T21: 4H331-bH
T21 chain: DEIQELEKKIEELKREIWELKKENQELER

T22: APC4011-AA
T22 chain: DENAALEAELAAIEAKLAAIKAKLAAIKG

T23: APC4436-AA
T23 chain: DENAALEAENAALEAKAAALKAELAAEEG

T24: APC8191-AA
T24 chain: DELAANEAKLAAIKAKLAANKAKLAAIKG

T25: APC4264-AA
T25 chain: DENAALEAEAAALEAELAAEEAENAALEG

T26: APC2237-AA
T26 chain: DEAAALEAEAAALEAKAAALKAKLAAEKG

T27: APC9319-AA
T27 chain: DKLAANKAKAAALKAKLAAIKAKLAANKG

T28: APC1434-AA
T28 chain: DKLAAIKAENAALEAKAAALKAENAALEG

T29: APC5383-AA
T29 chain: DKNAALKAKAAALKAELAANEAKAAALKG

T30: APC8910-AA
T30 chain: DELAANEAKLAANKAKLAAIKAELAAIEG

T31: APC3645-AA
T31 chain: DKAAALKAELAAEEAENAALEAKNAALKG

T32: APC232-AA
T32 chain: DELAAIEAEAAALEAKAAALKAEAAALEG

T33: APC6108-AA
T33 chain: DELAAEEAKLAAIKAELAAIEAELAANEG

T34: APC7099-AA
T34 chain: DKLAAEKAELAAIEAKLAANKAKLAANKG

T35: APC1015-AA
T35 chain: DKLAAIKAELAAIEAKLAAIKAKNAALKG

T36: APC9096-AA
T36 chain: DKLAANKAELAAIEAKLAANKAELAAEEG

T37: APC2405-AA
T37 chain: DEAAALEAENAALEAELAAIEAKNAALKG

T38: O8
T38 chain: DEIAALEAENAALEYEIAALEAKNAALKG

T39: O7
T39 chain: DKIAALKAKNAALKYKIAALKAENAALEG

T40: O9
T40 chain: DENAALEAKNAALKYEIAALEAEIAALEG

T41: O4
T41 chain: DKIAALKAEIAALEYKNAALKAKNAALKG

T42: O3
T42 chain: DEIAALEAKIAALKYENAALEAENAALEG

T43: O5
T43 chain: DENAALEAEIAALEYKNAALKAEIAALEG

T44: O6
T44 chain: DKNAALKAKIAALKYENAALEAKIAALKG

T45: 4H4001-bH
T45 chain: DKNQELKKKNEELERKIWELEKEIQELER

T46: 4H3926-bH
T46 chain: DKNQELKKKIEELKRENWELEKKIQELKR

T47: 4H4073-bH
T47 chain: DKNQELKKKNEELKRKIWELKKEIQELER

T48: 4H575-bH
T48 chain: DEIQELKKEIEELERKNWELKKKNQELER

T49: 4H780-bH
T49 chain: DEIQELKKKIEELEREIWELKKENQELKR

T50: 4H3112-bH
T50 chain: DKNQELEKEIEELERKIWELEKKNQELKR

T51: 4H457-bH
T51 chain: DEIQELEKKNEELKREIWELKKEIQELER

T52: 4H319-bA
T52 chain: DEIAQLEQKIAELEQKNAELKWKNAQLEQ

T53: 4H346-bH
T53 chain: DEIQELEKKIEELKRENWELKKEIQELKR

T54: 4H968-bH
T54 chain: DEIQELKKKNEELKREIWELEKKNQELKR

T55: 4H855-bH
T55 chain: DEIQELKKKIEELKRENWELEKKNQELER

T56: 4H683-bH
T56 chain: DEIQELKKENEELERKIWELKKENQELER


Legend:
4H568-bH = target: T1, 4H568-bH; experiment: two-hybrid library CCNG1;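 further: natural log of median RNA to DNA barcode read ratio; higher means stronger binding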
4H3427-bH = target: T2, 4H3427-bH; experiment: two-hybrid library CCNG1;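 further: natural log of median RNA to DNA barcode read ratio; higher means stronger binding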
4H72-bH = target: T3, 4H72-bH; experiment: two-hybrid library CCNG1;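 further: natural log of median RNA to DNA barcode read ratio; higher means stronger binding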
4H3185-bH = target: T4, 4H3185-bH; experiment: two-hybrid library CCNG1;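 further: natural log of median RNA to DNA barcode read ratio; higher means stronger binding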
4H3354-bH = target: T5, 4H3354-bH; experiment: two-hybrid library CCNG1
4H967-bH = target: T6, 4H967-bH; experiment: two-hybrid library CCNG1
4H454-bH = target: T7, 4H454-bH; experiment: two-hybrid library CCNG1
4H754-bH = target: T8, 4H754-bH; experiment: two-hybrid library CCNG1
4H687-bH = target: T9, 4H687-bH; experiment: two-hybrid library CCNG1
4H797-bH = target: T10, 4H797-bH; experiment: two-hybrid library CCNG1
4H607-bH = target: T11, 4H607-bH; experiment: two-hybrid library CCNG1
4H3782-bH = target: T12, 4H3782-bH; experiment: two-hybrid library CCNG1
4H338-bH = target: T13, 4H338-bH; experiment: two-hybrid library CCNG1
4H953-bH = target: T14, 4H953-bH; experiment: two-hybrid library CCNG1
4H717-bH = target: T15, 4H717-bH; experiment: two-hybrid library CCNG1
4H908-bH = target: T16, 4H908-bH; experiment: two-hybrid library CCNG1
4H4001-bN = target: T17, 4H4001-bN; experiment: two-hybrid library CCNG1
4H3855-bH = target: T18, 4H3855-bH; experiment: two-hybrid library CCNG1
4H918-bH = target: T19, 4H918-bH; experiment: two-hybrid library CCNG1
4H883-bH = target: T20, 4H883-bH; experiment: two-hybrid library CCNG1
4H331-bH = target: T21, 4H331-bH; experiment: two-hybrid library CCNG1
APC4011-AA = target: T22, APC4011-AA; experiment: two-hybrid library CCmax; conditions: mean of both orientations
APC4436-AA = target: T23, APC4436-AA; experiment: two-hybrid library CCmax; conditions: mean of both orientations
APC8191-AA = target: T24, APC8191-AA; experiment: two-hybrid library CCmax; conditions: mean of both orientations
APC4264-AA = target: T25, APC4264-AA; experiment: two-hybrid library CCmax
APC2237-AA = target: T26, APC2237-AA; experiment: two-hybrid library CCmax; conditions: mean of both orientations
APC9319-AA = target: T27, APC9319-AA; experiment: two-hybrid library CCmax; conditions: mean of both orientations
APC1434-AA = target: T28, APC1434-AA; experiment: two-hybrid library CCmax; conditions: mean of both orientations
APC5383-AA = target: T29, APC5383-AA; experiment: two-hybrid library CCmax; conditions: mean of both orientations
APC8910-AA = target: T30, APC8910-AA; experiment: two-hybrid library CCmax; conditions: mean of both orientations
APC3645-AA = target: T31, APC3645-AA; experiment: two-hybrid library CCmax; conditions: mean of both orientations
APC232-AA = target: T32, APC232-AA; experiment: two-hybrid library CCmax; conditions: mean of both orientations
APC6108-AA = target: T33, APC6108-AA; experiment: two-hybrid library CCmax; conditions: mean of both orientations
APC7099-AA = target: T34, APC7099-AA; experiment: two-hybrid library CCmax; conditions: mean of both orientations
APC1015-AA = target: T35, APC1015-AA; experiment: two-hybrid library CCmax; conditions: mean of both orientations
APC9096-AA = target: T36, APC9096-AA; experiment: two-hybrid library CCmax; conditions: mean of both orientations
APC2405-AA = target: T37, APC2405-AA; experiment: two-hybrid library CCmax; conditions: mean of both orientations
O8 = target: T38, O8; experiment: two-hybrid library CCNG1
O7 = target: T39, O7; experiment: two-hybrid library CCNG1
O9 = target: T40, O9; experiment: two-hybrid library CCNG1
O4 = target: T41, O4; experiment: two-hybrid library CCNG1
O3 = target: T42, O3; experiment: two-hybrid library CCNG1
O5 = target: T43, O5; experiment: two-hybrid library CCNG1
O6 = target: T44, O6; experiment: two-hybrid library CCNG1
4H4001-bH = target: T45, 4H4001-bH; experiment: two-hybrid library CCNG1
4H3926-bH = target: T46, 4H3926-bH; experiment: two-hybrid library CCNG1
4H4073-bH = target: T47, 4H4073-bH; experiment: two-hybrid library CCNG1
4H575-bH = target: T48, 4H575-bH; experiment: two-hybrid library CCNG1
4H780-bH = target: T49, 4H780-bH; experiment: two-hybrid library CCNG1
4H3112-bH = target: T50, 4H3112-bH; experiment: two-hybrid library CCNG1
4H457-bH = target: T51, 4H457-bH; experiment: two-hybrid library CCNG1
4H319-bA = target: T52, 4H319-bA; experiment: two-hybrid library CCNG1
4H346-bH = target: T53, 4H346-bH; experiment: two-hybrid library CCNG1
4H968-bH = target: T54, 4H968-bH; experiment: two-hybrid library CCNG1
4H855-bH = target: T55, 4H855-bH; experiment: two-hybrid library CCNG1
4H683-bH = target: T56, 4H683-bH; experiment: two-hybrid library CCNG1

interaction score (4H568-bH)	interaction score (4H3427-bH)	interaction score (4H72-bH)	interaction score (4H3185-bH)	interaction score (4H3354-bH)	interaction score (4H967-bH)	interaction score (4H454-bH)	interaction score (4H687-bH)	interaction score (4H797-bH)	interaction score (4H607-bH)	interaction score (4H3782-bH)	interaction score (4H338-bH)	interaction score (4H953-bH)	interaction score (4H717-bH)	interaction score (4H908-bH)	interaction score (4H3855-bH)	interaction score (4H918-bH)	interaction score (4H883-bH)	interaction score (4H331-bH)	Binder	also measured
-2.61	-0.801	-1.26	0.0268	-0.583	-1.56	-1.16	-0.899	-1.22	-0.833	-0.522	-0.56	-1.21	-0.724	-0.797	-0.899	-1.09	-0.72	-0.701	DKNQELEKEIEELKRKNWELEKEIQELER [4H3185-bH]	interaction score (4H754-bH): -1.15; interaction score (4H4001-bN): 0
																			DEIAALKAKIAALEAKIAALEAKNAALEG [4H807-AA]	interaction score (APC4011-AA): 1.45; interaction score (APC4436-AA): -1.65; interaction score (APC8191-AA): -2.1; interaction score (APC4264-AA): -1.72; interaction score (APC2237-AA): -1.21; interaction score (APC9319-AA): -1.71; interaction score (APC1434-AA): -1.82; interaction score (APC5383-AA): -1.89; interaction score (APC8910-AA): -1.59; interaction score (APC3645-AA): -1.3; interaction score (APC232-AA): -1.73; interaction score (APC6108-AA): -1.43; interaction score (APC7099-AA): -1.32; interaction score (APC1015-AA): -0.714; interaction score (APC9096-AA): -1.75; interaction score (APC2405-AA): -1.49
																			DEIAALEAKIAALKYENAALEAENAALEG [O3]	interaction score (O8): -2.29; interaction score (O7): -2.58; interaction score (O9): -2.28; interaction score (O4): 2.05; interaction score (O3): -2.29; interaction score (O5): -2; interaction score (O6): -2.73
-0.443	1.07	0.428	-0.575	0.156	1.34	0.624	-0.713	-0.951	0.768	0.0549	1.72	-0.641	-0.259	-0.43	0.754	0.72	0.871	0.991	DKNQELEKEIEELERKIWELEKKNQELKR [4H3112-bH]	interaction score (4H4001-bH): 0.971; interaction score (4H3926-bH): 0.42; interaction score (4H4073-bH): 1.57; interaction score (4H575-bH): -0.872; interaction score (4H780-bH): 0.704; interaction score (4H3112-bH): 1.18; interaction score (4H457-bH): -1.29; interaction score (4H319-bA): -3.07; interaction score (4H346-bH): 0.584; interaction score (4H968-bH): 1.05; interaction score (4H855-bH): -2.78; interaction score (4H683-bH): 0.204
